Source: article PMC7060279 (2020)

Legend:
Experiment in all cases: SPR
[1] = target: human recombinant TLR2 protein (human, UniProt O60603 21-588)
integrin αvβ3 protein = target: T1, integrin αvβ3 protein (UniProt P06756 31-1048; P05106 27-718)
T1 chain 1: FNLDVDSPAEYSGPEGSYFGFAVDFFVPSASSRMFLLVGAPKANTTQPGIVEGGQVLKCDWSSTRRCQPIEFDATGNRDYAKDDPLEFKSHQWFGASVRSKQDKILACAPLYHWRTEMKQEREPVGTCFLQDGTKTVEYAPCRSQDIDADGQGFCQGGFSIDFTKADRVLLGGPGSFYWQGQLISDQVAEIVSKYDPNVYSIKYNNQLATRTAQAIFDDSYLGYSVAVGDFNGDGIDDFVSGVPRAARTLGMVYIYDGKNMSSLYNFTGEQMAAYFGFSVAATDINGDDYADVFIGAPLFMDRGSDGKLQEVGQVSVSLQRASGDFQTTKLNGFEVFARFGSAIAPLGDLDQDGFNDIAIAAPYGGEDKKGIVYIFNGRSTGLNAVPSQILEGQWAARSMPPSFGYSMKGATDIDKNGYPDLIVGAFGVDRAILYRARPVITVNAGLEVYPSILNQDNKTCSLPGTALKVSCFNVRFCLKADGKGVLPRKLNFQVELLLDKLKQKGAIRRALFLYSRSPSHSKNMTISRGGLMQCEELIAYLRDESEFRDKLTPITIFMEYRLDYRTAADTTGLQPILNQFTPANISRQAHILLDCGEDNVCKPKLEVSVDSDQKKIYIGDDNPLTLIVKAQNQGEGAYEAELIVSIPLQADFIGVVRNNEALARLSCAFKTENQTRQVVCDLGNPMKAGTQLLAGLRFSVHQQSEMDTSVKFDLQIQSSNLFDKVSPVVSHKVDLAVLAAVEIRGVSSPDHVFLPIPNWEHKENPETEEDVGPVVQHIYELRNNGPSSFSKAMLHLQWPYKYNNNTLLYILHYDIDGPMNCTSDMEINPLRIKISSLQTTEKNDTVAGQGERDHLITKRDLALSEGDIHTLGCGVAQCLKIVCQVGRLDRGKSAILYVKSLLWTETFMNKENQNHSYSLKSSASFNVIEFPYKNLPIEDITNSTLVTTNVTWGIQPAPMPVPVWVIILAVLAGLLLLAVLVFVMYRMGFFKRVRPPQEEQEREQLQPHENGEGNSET
T1 chain 2: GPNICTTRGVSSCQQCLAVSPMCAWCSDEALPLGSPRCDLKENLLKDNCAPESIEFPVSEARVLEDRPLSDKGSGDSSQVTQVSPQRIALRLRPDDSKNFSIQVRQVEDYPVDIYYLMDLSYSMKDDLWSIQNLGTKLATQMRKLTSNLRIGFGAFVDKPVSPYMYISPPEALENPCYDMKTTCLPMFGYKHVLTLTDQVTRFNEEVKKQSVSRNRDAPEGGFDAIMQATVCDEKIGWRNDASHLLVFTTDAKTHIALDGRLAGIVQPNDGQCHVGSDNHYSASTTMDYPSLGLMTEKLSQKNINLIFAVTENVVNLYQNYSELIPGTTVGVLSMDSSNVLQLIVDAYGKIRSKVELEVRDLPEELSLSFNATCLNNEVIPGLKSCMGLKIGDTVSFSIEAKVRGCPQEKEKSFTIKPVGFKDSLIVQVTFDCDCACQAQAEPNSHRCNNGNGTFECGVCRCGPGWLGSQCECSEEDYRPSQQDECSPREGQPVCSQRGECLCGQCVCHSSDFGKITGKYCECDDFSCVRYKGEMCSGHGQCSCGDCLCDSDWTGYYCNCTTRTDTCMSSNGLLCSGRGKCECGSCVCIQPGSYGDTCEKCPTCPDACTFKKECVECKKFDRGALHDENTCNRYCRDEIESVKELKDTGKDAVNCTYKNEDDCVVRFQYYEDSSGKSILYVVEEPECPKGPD

[2] = target: human recombinant TLR4 protein (without MD2) (human, UniProt O00206 24-631)
human recombinant TLR4 protein (without MD2), sequence (O00206 24-631): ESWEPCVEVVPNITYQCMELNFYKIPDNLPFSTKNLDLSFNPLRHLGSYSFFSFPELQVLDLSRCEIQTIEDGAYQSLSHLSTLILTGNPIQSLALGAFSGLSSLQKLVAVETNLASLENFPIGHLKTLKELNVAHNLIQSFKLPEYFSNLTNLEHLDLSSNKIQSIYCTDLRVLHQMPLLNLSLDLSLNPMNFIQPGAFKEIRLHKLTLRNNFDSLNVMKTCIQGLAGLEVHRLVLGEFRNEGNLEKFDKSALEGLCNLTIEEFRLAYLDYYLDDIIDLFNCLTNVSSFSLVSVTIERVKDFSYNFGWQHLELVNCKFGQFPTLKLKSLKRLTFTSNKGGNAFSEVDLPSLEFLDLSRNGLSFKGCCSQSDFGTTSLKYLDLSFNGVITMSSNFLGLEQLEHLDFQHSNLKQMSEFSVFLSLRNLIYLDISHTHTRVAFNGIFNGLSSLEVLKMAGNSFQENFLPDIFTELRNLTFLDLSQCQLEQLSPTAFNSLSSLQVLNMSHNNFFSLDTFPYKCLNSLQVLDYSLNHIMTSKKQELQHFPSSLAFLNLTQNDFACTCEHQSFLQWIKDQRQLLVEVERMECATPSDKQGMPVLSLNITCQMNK

human recombinant TLR2 protein, sequence (O60603 21-588): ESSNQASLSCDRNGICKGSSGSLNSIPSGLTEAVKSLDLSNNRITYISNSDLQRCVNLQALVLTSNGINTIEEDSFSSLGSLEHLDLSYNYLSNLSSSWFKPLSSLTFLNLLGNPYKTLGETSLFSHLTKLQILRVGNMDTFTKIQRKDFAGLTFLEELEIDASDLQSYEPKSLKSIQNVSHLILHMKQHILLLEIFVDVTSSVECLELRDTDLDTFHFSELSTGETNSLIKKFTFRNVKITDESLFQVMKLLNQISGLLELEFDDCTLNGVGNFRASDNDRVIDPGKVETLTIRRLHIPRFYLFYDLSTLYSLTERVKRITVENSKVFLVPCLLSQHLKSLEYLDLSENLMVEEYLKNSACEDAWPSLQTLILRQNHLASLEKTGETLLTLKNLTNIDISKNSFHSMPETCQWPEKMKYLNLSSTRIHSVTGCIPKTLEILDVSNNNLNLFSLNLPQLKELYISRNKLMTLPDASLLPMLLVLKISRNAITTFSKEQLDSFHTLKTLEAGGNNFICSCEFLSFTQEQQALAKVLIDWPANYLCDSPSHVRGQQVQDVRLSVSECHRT

B1: CCN1-WT (recombinant matricellular protein CCN1) (natural protein)
chain: TCPAACHCPLEAPKCAPGVGLVRDGCGCCKVCAKQLNEDCSKTQPCDHTKGLECNFGASSTALKGICRAQSEGRPCEYNSRIYQNGESFQPNCKHQCTCIDGAVGCIPLCPQELSLPNLGCPNPRLVKVSGQCCEEWVCDEDSIKDSLDDQDDLLGLDASEVELTRNNELIAIGKGSSLKRLPVFGTEPRVLFNPLHAHGQKCIVQTTSWSQCSKSCGTGISTRVTNDNPECRLVKETRICEVRPCGQPVYSSLKKGKKCSKTKKSPEPVRFTYAGCSSVKKYRPKYCGSCVDGRCCTPLQTRTVKMRFRCEDGEMFSKNVMMIQSCKCNYNCPHPNEASFRLYSLFNDIHKFRD
Binder B1 has a koff [1] of 0.0146 s⁻¹, a koff (integrin αvβ3 protein) of 0.0193 s⁻¹ and a koff [2] of 0.00288 s⁻¹.
